Measured values taken from patent publication EP4631959A2, “NOVEL MINIGASTRIN-DERIVED CHOLECYSTOKININ 2 RECEPTOR BINDING MOLECULES FOR IMAGING AND TARGETED RADIOTHERAPY” (priority 2022, dated 2024).
Read-outs that look alike come from different tables or passages of the source. Starred links: 1 amine or outer side, 2 acyl side, 3 side chain; linkers in the order of their positions; H or OH if unused. Non-standard residues stand in square brackets, D forms with d. Residues, ends and D or L forms follow the SMILES beside them. *: point of attachment. DOTAGA = O=C(O)CN1CCN(CC(=O)O)CCN(C(CCC(=O)*)C(=O)O)CCN(CC(=O)O)CC1; Benzoyl(4-SiFtBu2) = CC(C)(C)[Si](F)(c1ccc(C(=O)*)cc1)C(C)(C)C; DOTA = O=C(O)CN1CCN(CC(=O)O)CCN(CC(=O)*)CCN(CC(=O)O)CC1; d(γGlu) = O=C(O)[C@@H](CCC(=O)[*:2])N[*:1]; 1Nal = N[C@@H](Cc1cccc2ccccc12)C(=O)O; PEG5 = NCCOCCOCCOCCOCCOCCC(=O)O; NMeNle = CCCC[C@H](NC)C(=O)O; PEG4 = NCCOCCOCCOCCOCCC(=O)O; Nle = CCCC[C@H](N)C(=O)O; dDap = NC[C@@H](N)C(=O)O

Experiments:
[1] = molecular target: T1, CCK-2R (Rattus norvegicus, UniProt P30553); experiment: Determination of IC50: CCK-2R affinity on AR4-2J cells, competition with [^177Lu]Lu-DOTA-PP-F11N; format: binding; conditions: AR4-2J cells
T1 construct: The CCK-2R expressing rat pancreatic tumor cells AR4-2J; host or cells: AR4-2J rat pancreatic tumor cells
T1 sequence (P30553 1-452): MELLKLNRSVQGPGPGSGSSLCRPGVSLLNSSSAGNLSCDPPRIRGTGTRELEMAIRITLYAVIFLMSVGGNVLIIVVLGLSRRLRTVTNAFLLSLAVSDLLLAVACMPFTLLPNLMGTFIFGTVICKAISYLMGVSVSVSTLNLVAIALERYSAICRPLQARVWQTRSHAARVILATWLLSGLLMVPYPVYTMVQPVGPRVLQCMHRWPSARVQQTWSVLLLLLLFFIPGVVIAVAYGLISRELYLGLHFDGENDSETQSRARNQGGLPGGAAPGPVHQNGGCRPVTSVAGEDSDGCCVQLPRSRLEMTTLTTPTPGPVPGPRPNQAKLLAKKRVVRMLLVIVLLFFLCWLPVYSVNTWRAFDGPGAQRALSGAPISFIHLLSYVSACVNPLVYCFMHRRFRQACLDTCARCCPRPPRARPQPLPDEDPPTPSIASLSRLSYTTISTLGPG
Procedure, shortened: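 Competitive displacement of 0.3 pmol/well [177Lu]Lu-DOTA-PP-F11N by compounds (10^-10 to 10^-4 M) on AR4-2J cells in BSA-supplemented medium, 3 h at 37 °C. Free label was collected from medium plus PBS rinse, and cell-bound label was recovered with 1 M NaOH, both measured by γ-counter. Each IC50 was determined twice, in triplicate.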

[2] = n-Octanol-PBS distribution coefficient (logD7.4); format: physicochemical; conditions: for logD7.4 (n ≥ 5), ^177Lu-labeled: pH = 7.4, ^177Lu-labeled
Description: Approximately 1 MBq of the labeled tracer was dissolved in 1 mL of a 1/1 mixture (v/v) of phosphate buffered saline (PBS, pH = 7.4) and n-octanol in an Eppendorf tube (1.5 mL). After vigorous mixing of the suspension for 3 min at rt, the vial was centrifuged at 9,000 rpm for 5 min (Biofuge 15, Heraeus Sepatech, Osterode, Germany) and 200 µL aliquots of both layers were measured in a γ-counter. The experiment was repeated at least five times.

[3] = molecular target: T2, Human serum albumin (HSA) (Homo sapiens, UniProt P02768); experiment: Determination of HSA binding on a Chiralpak HSA column; format: in vitro ADME; conditions: for HSA binding [%]: Tab. 8, metal not stated (Fig. 18: ^natLu)
T2 construct: purchased Daicel, Tokyo, Japan H13H-2433
Description: Human serum albumin (HSA) binding of the CCK-2R-targeted compounds was determined as reported by Valko et al., using a Chiralpak HSA column (50 x 3 mm, 5 µm, H13H-2433, Daicel, Tokyo, Japan) at a constant flow rate of 0.5 mL/min at rt. Therefore, an aq. solution of NH4OAc (pH = 6.9, 50 mM) as mobile phase A and isopropanol as mobile phase B were freshly prepared. In order to calibrate the column prior to the experiments, the retention times of nine reference substances with a HSA binding in the range of 13 to 99% were determined using a gradient of 100% A (0 to 3 min), followed by 80% A (3 to 40 min). Furthermore, all substances tested, were dissolved in a mixture (1/1, v/v) of A and B reaching a final concentration of 0.5 mg/mL. The HSA binding of all rhCCK ligands tested, was determined using the same gradient as for the calibration probes. The non-linear regression of the calibration experiments and the CCK-2R ligands (Fig. 29) was established using the OriginPro 2016G software (Northampton, United States).

[4] = ^natLu-labeled, read-out: IC50 [nM] (n = 3), ^natLu-labeled
[5] = read-out: IC50 [nM] (n = 3), ^natGa-labeled, ^natGa-labeled
[6] = read-out: IC50 [nM] (n = 3), ^natLu-labeled, ^natLu-labeled

T2 sequence (P02768 25-609): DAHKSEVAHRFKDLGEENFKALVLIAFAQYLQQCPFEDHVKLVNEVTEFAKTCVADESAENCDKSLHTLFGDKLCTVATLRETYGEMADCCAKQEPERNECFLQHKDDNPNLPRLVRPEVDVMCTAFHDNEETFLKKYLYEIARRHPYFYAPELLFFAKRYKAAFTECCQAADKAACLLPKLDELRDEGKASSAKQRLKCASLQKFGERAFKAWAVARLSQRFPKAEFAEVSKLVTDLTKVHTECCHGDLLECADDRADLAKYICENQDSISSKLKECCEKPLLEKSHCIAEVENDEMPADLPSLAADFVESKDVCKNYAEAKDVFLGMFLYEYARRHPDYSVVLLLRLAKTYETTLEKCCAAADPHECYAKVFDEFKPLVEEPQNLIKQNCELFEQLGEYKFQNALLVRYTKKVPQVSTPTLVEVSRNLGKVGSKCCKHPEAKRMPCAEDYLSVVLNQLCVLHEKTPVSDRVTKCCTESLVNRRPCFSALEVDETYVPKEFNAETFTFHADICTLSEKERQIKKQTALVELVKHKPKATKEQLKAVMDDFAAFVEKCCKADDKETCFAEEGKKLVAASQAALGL

Compound | IC50 [1, 4] [nM] | logD7.4 (n ≥ 5), ^177Lu-labeled [2] | HSA binding [%] [3] [%] | further results
CCCC[C@@H](C(=O)N[C@@H](CC(=O)O)C(=O)N[C@@H](Cc1cccc2ccccc12)C(N)=O)N(C)C(=O)[C@H](Cc1c[nH]c2ccccc12)NC(=O)CCOCCOCCOCCOCCNC(=O)[C@@H](CCC(=O)O)NC(=O)CN1CCN(CC(=O)O)CCN(CC(=O)O)CCN(CC(=O)O)CC1 [DOTA-CCK-66.2, DOTA-glu-(PEG)3-Trp-(N-Me)Nle-Asp-1-Nal-NH2] ({DOTA}-[dE][PEG4]W[NMeNle]D[1Nal]-NH2) | 4.8 ± 0.9 | −2.69 ± 0.09 | – | IC50 ([1]; ^natCu-labeled, read-out: IC50 [nM] (n = 3), ^natCu-labeled): 5.8 ± 0.2 nM; IC50 ([1]; ^natGa-labeled, read-out: IC50 [nM] (n = 3), ^natGa-labeled): 6 ± 1 nM; logD7.4 (n ≥ 5), ^64Cu-labeled ([2]; pH = 7.4, ^64Cu-labeled): −2.84 ± 0.08; logD7.4 (n ≥ 5), ^67Ga-labeled ([2]; pH = 7.4, ^67Ga-labeled): −2.55 ± 0.04; HSA binding [%], ^natCu-labeled [3]: 61.1%; HSA binding [%], ^natGa-labeled [3]: 54.2%; HSA binding [%], ^natLu-labeled [3]: 72.7%
CCCC[C@@H](C(=O)N[C@@H](CC(=O)O)C(=O)N[C@@H](Cc1cccc2ccccc12)C(N)=O)N(C)C(=O)[C@H](Cc1c[nH]c2ccccc12)NC(=O)CCOCCOCCOCCOCCNC(=O)CC[C@@H](NC(=O)CCOCCOCCOCCOCCOCCNC(=O)[C@@H](CNC(=O)c1ccc([Si](F)(C(C)(C)C)C(C)(C)C)cc1)NC(=O)CN1CCN(CC(=O)O)CCN(CC(=O)O)CCN(CC(=O)O)CC1)C(=O)O [DOTA-rhCCK-67, DOTA-dap(SiFA)-(PEG)4-γ-glu-(PEG)3-Trp-(N-Me)Nle-Asp-1-Nal-NH2] ({DOTA}-[dDap](Benzoyl(4-SiFtBu2))[PEG5][d(γGlu)][PEG4]W[NMeNle]D[1Nal]-NH2) | 13 ± 1.1 | −1.05 ± 0.09 | 92.9 | IC50 [1, 5]: 49.5 ± 3.7 nM
CCCC[C@@H](C(=O)N[C@@H](CC(=O)O)C(=O)N[C@@H](Cc1cccc2ccccc12)C(N)=O)N(C)C(=O)[C@H](Cc1c[nH]c2ccccc12)NC(=O)CCOCCOCCOCCOCCNC(=O)CC[C@@H](NC(=O)CCOCCOCCOCCOCCOCCNC(=O)CC[C@@H](NC(=O)[C@@H](CNC(=O)c1ccc([Si](F)(C(C)(C)C)C(C)(C)C)cc1)NC(=O)CN1CCN(CC(=O)O)CCN(CC(=O)O)CCN(CC(=O)O)CC1)C(=O)O)C(=O)O [DOTA-rhCCK-68, DOTA-dap(SiFA)-γ-glu-(PEG)4-γ-glu-(PEG)3-Trp-(N-Me)Nle-Asp-1-Nal-NH2] | 15.4 ± 1.1 | −1.65 ± 0.09 | 91.2 | IC50 [1, 5]: 36.9 ± 5.4 nM
CCCC[C@@H](C(=O)N[C@@H](CC(=O)O)C(=O)N[C@@H](Cc1cccc2ccccc12)C(N)=O)N(C)C(=O)[C@H](Cc1c[nH]c2ccccc12)NC(=O)CCOCCOCCOCCOCCNC(=O)CC[C@@H](NC(=O)CCOCCOCCOCCOCCOCCOCCOCCOCCOCCOCCOCCOCCNC(=O)CC[C@@H](NC(=O)[C@@H](CNC(=O)c1cc(C(=O)O)cc([Si](F)(C(C)(C)C)C(C)(C)C)c1)NC(=O)CN1CCN(CC(=O)O)CCN(CC(=O)O)CCN(CC(=O)O)CC1)C(=O)O)C(=O)O [DOTA-rhCCK-69, DOTA-dap(SiFA-ipa)-γ-glu-(PEG)11-γ-glu-(PEG)3-Trp-(N-Me)Nle-Asp-1-Nal-NH2] | 43.1 ± 1.7 | −2.11 ± 0.09 | 84.7 | –
CCCC[C@@H](C(=O)N[C@@H](CC(=O)O)C(=O)N[C@@H](Cc1cccc2ccccc12)C(N)=O)N(C)C(=O)[C@H](Cc1c[nH]c2ccccc12)NC(=O)CCOCCOCCOCCOCCNC(=O)CC[C@@H](NC(=O)CCOCCOCCOCCOCCOCCOCCOCCOCCNC(=O)CC[C@@H](NC(=O)[C@@H](CNC(=O)c1ccc([Si](F)(C(C)(C)C)C(C)(C)C)cc1)NC(=O)CN1CCN(CC(=O)O)CCN(CC(=O)O)CCN(CC(=O)O)CC1)C(=O)O)C(=O)O [DOTA-rhCCK-70, DOTA-dap(SiFA)-γ-glu-(PEG7-γ-glu-(PEG)3-Trp-(N-Me)Nle-Asp-1-Nal-NH2] | 12.6 ± 2 | −1.67 ± 0.08 | 89.3 | –
CCCC[C@@H](C(=O)N[C@@H](CC(=O)O)C(=O)N[C@@H](Cc1cccc2ccccc12)C(N)=O)N(C)C(=O)[C@H](Cc1c[nH]c2ccccc12)NC(=O)CCOCCOCCOCCOCCNC(=O)CC[C@@H](NC(=O)CCOCCOCCOCCOCCOCCOCCOCCOCCNC(=O)CC[C@@H](NC(=O)[C@@H](CNC(=O)C[N+](C)(C)Cc1ccc([Si](F)(C(C)(C)C)C(C)(C)C)cc1)NC(=O)CN1CCN(CC(=O)O)CCN(CC(=O)O)CCN(CC(=O)O)CC1)C(=O)O)C(=O)O [DOTA-rhCCK-71, DOTA-dap(SiFAlin)-γ-glu-(PEG)7-γ-glu-(PEG)3-Trp-(N-Me)Nle-Asp-1-Nal-NH2] | 13.3 ± 1.3 | −1.63 ± 0.06 | 89.1 | –
CCCC[C@@H](C(=O)N[C@@H](CC(=O)O)C(=O)N[C@@H](Cc1cccc2ccccc12)C(N)=O)N(C)C(=O)[C@H](Cc1c[nH]c2ccccc12)NC(=O)CCOCCOCCOCCOCCNC(=O)CC[C@@H](NC(=O)CCOCCOCCOCCOCCOCCOCCOCCOCCNC(=O)CC[C@@H](NC(=O)[C@@H](CNC(=O)c1cc(C(=O)O)cc([Si](F)(C(C)(C)C)C(C)(C)C)c1)NC(=O)CN1CCN(CC(=O)O)CCN(CC(=O)O)CCN(CC(=O)O)CC1)C(=O)O)C(=O)O [DOTA-rhCCK-72, DOTA-dap(SiFA-ipa)-γ-glu-(PEG)7-γ-glu-(PEG)3-Trp-(N-Me)Nle-Asp-1-Nal-NH2] | 52.3 ± 6.2 | −2.32 ± 0.03 | 89.3 | –
CCCC[C@H](NC(=O)[C@H](Cc1c[nH]c2ccccc12)NC(=O)CNC(=O)[C@H](Cc1ccc(O)cc1)NC(=O)[C@H](C)NC(=O)CC[C@@H](NC(=O)CC[C@@H](NC(=O)CC[C@@H](NC(=O)CC[C@@H](NC(=O)[C@@H](CNC(=O)c1ccc([Si](F)(C(C)(C)C)C(C)(C)C)cc1)NC(=O)CC[C@@H](NC(=O)CC[C@@H](NC(=O)CC[C@@H](NC(=O)CC[C@@H](NC(=O)CCC(C(=O)O)N1CCN(CC(=O)O)CCN(CC(=O)O)CCN(CC(=O)O)CC1)C(=O)O)C(=O)O)C(=O)O)C(=O)O)C(=O)O)C(=O)O)C(=O)O)C(=O)O)C(=O)N[C@@H](CC(=O)O)C(=O)N[C@@H](Cc1ccccc1)C(N)=O (stereo partly drawn) [DOTAGA-MG-SiFA-25, DOTAGA-(γ-glu)3-[dap(SiFA)^2]γ-F11N] ({DOTAGA-d(γGlu)-d(γGlu)-d(γGlu)-d(γGlu)}-[dDap](Benzoyl(4-SiFtBu2))[d(γGlu)][d(γGlu)][d(γGlu)][d(γGlu)]AYGW[Nle]DF-NH2) | – | −2.74 ± 0.04 | – | IC50 [1, 6]: 62.9 ± 8.1 nM
CCCC[C@H](NC(=O)[C@H](Cc1c[nH]c2ccccc12)NC(=O)CNC(=O)[C@H](Cc1ccc(O)cc1)NC(=O)[C@H](C)NC(=O)CC[C@@H](NC(=O)CC[C@@H](NC(=O)CC[C@@H](NC(=O)CC[C@@H](NC(=O)CC[C@@H](NC(=O)[C@@H](CNC(=O)c1ccc([Si](F)(C(C)(C)C)C(C)(C)C)cc1)NC(=O)CC[C@@H](NC(=O)CC[C@@H](NC(=O)CC[C@@H](NC(=O)CC[C@@H](NC(=O)CCC(C(=O)O)N1CCN(CC(=O)O)CCN(CC(=O)O)CCN(CC(=O)O)CC1)C(=O)O)C(=O)O)C(=O)O)C(=O)O)C(=O)O)C(=O)O)C(=O)O)C(=O)O)C(=O)O)C(=O)N[C@@H](CC(=O)O)C(=O)N[C@@H](Cc1ccccc1)C(N)=O (stereo partly drawn) [DOTAGA-MG-SiFA-26, DOTAGA-(γ-glu)4-[dap(SiFA)^1]γ-F11N] ({DOTAGA-d(γGlu)-d(γGlu)-d(γGlu)-d(γGlu)}-[dDap](Benzoyl(4-SiFtBu2))[d(γGlu)][d(γGlu)][d(γGlu)][d(γGlu)][d(γGlu)]AYGW[Nle]DF-NH2) | – | −2.89 ± 0.04 | – | IC50 [1, 6]: 37.1 ± 3.8 nM
